Experimental data as given in patent US20240083958A1, “G PROTEIN PEPTIDOMIMETICS” (VRIJE UNIVERSITEIT BRUSSEL, priority 2020, published 2024).
Bridge positions count the residues as written; N and C are the ends. Square brackets hold non-standard residues; d marks the D form. Primed or numbered codes have the meaning given here. Peptide text beside a SMILES is read from it. ξ: configuration not given here. Azk = residue with azidated side chain, clicked to Pra; Pra′ = residue with alkynyl side chain, clicked to Azk; Lys(N3) = [N-]=[N+]=NCCCC[C@H](N)C(=O)O; 1Nal = N[C@@H](Cc1cccc2ccccc12)C(=O)O; 2Nal = N[C@@H](Cc1ccc2ccccc2c1)C(=O)O; Aad = N[C@@H](CCCC(=O)O)C(=O)O; Cha = N[C@@H](CC1CCCCC1)C(=O)O; Ile(3ξ) = CCC(C)[C@H](N)C(=O)O; S5 = C=CCCC[C@](C)(N)C(=O)O; Pra = C#CC[C@H](N)C(=O)O

What was measured:
[1] = target: T1, human β2AR (Homo sapiens, UniProt P07550, N187E); assay: Radioligand binding assay (RLA) with human β2AR, 3H-dihydroalprenolol (DHA) as radioligand, isoproterenol (agonist) as cold competitor, in presence and absence of the peptidomimetic; set-up: key to Shift: ratio IC50 basal (no peptide) / IC50 with peptidomimetic
T1 construct: made in house; host or cells: Sf9 insect cells (Bac-to-Bac baculovirus); membrane extracts
Method: β2AR365N constructs were expressed in Sf9 insect cells, using the Bac-to-Bac® Baculovirus Expression System. The membrane extracts were prepared from cells that expressed β2AR. Subsequently, the cell pellet was resuspended in a buffer (1 ml buffer/2×1E7 cells) containing 75 mM Tris pH 7.4, 12.5 mM MgCl2, 1 mM EDTA, Leupeptin and PMSF as protease inhibitors. Afterwards the cells were vortexed and homogenized in ice using a small volume Ultraturrax (6×10 sec). The cells were then centrifuged for 15 min at 16000 rcf, in a pre-cooled centrifuge (4° C.) and resuspended in the previous buffer containing 10% sucrose. Finally, the membranes were again homogenized in ice with the small volume Ultraturrax (3×10 sec). The protein concentration in the membrane fragments was determined using a Pierce BCA Protein Assay Kit and the protein concentration was extrapolated from the Bovine Serum Albumine standard curve.
To perform the radioligand competition binding assays, 96-well plates were used. For the assays on β2AR, the membrane extracts as well as the peptides were prepared in a binding buffer (75 mM Tris pH 7.4, 12.5 mM MgCl2, 1 mM EDTA, 0.2% BSA). The ligand (isoproterenol) and radioligand ([^3H]-dihydroalprenolol) were dissolved in ligand buffer (75 mM Tris pH 7.4, 12.5 mM MgCl2, 1 mM EDTA, 0.2% BSA and 0.1% ascorbic acid), at 1 mM and 2 nM, respectively. A ten-fold dilution series of the ligand was prepared to obtain a dose response curve. For each reaction 100 μl membrane extract, 50 μl ligand, 50 μl peptide or binding buffer containing 1% DMSO and 50 μl of radioligand was added to the V-bottom storage plate, with a total volume of 250 μl per well. Afterwards, the plates were incubated at room temperature for 2 h on a plate shaker (150 rpm). The samples were harvested into filter plates and washed with ice cold washing buffer (75 mM Tris pH 7,4) using the 96-well harvester. The plates were dried for 1 h at 50° C. and then sealed to allow the addition of 30 μl scintillation liquid to each well. Finally, the top of each plate was sealed and the plates were placed in a Wallac MICROBETA® Trilux scintillation counter and incubated for 30 min in the dark.
After the Microbeta scintillation counter, the experimental data was further analyzed using Graphpad Prism 6.0. After normalization of the raw data, a nonlinear regression was used to fit the data in a one-site binding model, with the total binding set as 100% and the non-specific binding between 0 and 5%. The IC50 values, obtained from the competition curves, were used to determine the shift for each peptide, which is the ratio of IC50 of the agonist test compound on the basal conformation (e.g. IC50 β2AR with no peptidomimetic) versus the active conformation (e.g. IC50 β2AR+peptidomimetic) of the receptor. For certain peptide analogues, a biphasic binding curve was observed and therefore fitted by a two-site model (nonlinear regression), resulting in two IC50 values (IC50Hi and IC50Lo) and a FractionHi, the fraction of receptors in the active state.
Synthesised peptidomimetics were evaluated using a radioligand binding assay (RLA) with a human β2AR, using ^3H-dihydroalprenolol (DHA) as the radioligand and increasing concentrations of isoproterenol (agonist) as cold competitor. In particular, the pharmacological stabilization of the receptor in the active conformation was evaluated by performing the radioligand displacement assay (RLA) in the presence and absence of the peptidomimetics. This validated assay quantifies the pharmacological stabilization of the receptor in the active conformation by comparing the affinities of an agonist for the basal versus the active GPCR conformer (Pardon et al. (2018) Angewandte Chemie International Edition 57, 5292-5295). During the assay, the binding affinity of an orthosteric agonist for the receptor, in particular isoproterenol for human β2AR, in presence and absence of the allosteric peptidomimetic was determined. […]

[2] = target: human β2AR (human, UniProt P07550 2-365); assay: cell-based or functional assay
[3] = Table 18a overview, averaged values of IC50 shift

Molecule	Shift (averaged) [2]	further results
Ac-FN[PraCRDAzk]IQRMHLRQYELL-OH (Ac-FN[Pra′]CRD[Azk]IQRMHLRQYELL-OH; triazole 3-7) [compound 12]	–	Shift ([1]; Table 8, ratio IC50 β2AR alone / IC50 β2AR + modulator): 37
RDIIQRMHLRQYELL [compound 16, Ac-RDIIQRMHLRQYELL-OH]	–	Shift ([1]; Table 1, ratio IC50 β2AR alone / IC50 β2AR + peptidomimetic): 1; Shift ([1]; Table 18b overview, averaged values of IC50 shift): 1
Ac-FN[ECRDK]IQRMHLRQYELL-OH [compound 24]	–	Shift ([1]; Table 6, ratio IC50 β2AR alone / IC50 β2AR + peptidomimetic): 7; Shift [1, 3]: 7
CCC(C)[C@@H]1NC(=O)[C@@](C)(NC(=O)[C@H](CC(=O)O)NC(=O)[C@H](CCCNC(=N)N)NC(=O)[C@H](CS)NC(=O)[C@H](CC(=O)O)NC(=O)[C@H](CC(N)=O)NC(=O)[C@H](Cc2ccccc2)NC(C)=O)CCC/C=C\CCC[C@@](C)(C(=O)N[C@@H](Cc2c[nH]cn2)C(=O)N[C@@H](CC(C)C)C(=O)N[C@@H](CCCNC(=N)N)C(=O)N[C@@H](CCC(N)=O)C(=O)N[C@@H](Cc2ccc(O)cc2)C(=O)N[C@@H](CCC(=O)O)C(=O)N[C@@H](CC(C)C)C(=O)N[C@@H](CC(C)C)C(=O)O)NC(=O)[C@H](CCCNC(=N)N)NC(=O)[C@H](CCC(N)=O)NC1=O (stereo partly shown) [compound 8, Ac-FNDCRD[S5IQRS5]HLRQYELL-OH] (Ac-FNDCRD[S5][Ile(3ξ)]QR[S5]HLRQYELL-OH; staple (Z) 7-11)	–	Shift ([1]; Table 4, ratio IC50 β2AR alone / IC50 β2AR + peptidomimetic): 2; Shift [1, 3]: 3
Ac-FNDCRDIIQRMHLRQYEHL-OH [compound 71]	1	–
Ac-FN[Pra′]CRD[Azk]IQRMHLRQYQLL-OH [compound 27]	4	–
Ac-NARRIFNDARDIIQRMHLRQYELL-OH [compound 81]	8	–
Ac-FN[Pra′]CRN[Azk]IQRMHLRQYELL-OH (triazole 3-7) [compound 38]	7	–
Ac-RDIIQR[Lys(N3)]HLR[Pra′]YE[Cha]L-OH (triazole 7-11) [compound 64]	81	–
Ac-FNDCRDIIQRMHLRQYEYL-OH [compound 70]	2	–
Ac-FN[Pra′]CRD[Azk]IQRMHLRQYQLL-OH (triazole 3-7) [compound 28]	12	–
Ac-KFN[Pra′]CRD[Azk]IQRMHLRQYEIL-OH (triazole 4-8) [compound 48]	8	–
Ac-KKKFN[Pra′]CRD[Azk]IQRMHLRQYELI-OH (triazole 6-10) [compound 47]	64	–
Ac-FN[Pra′]CRD[Azk]IQRMHLRQYELI-OH (triazole 3-7) [compound 34]	29	–
Ac-KFN[Pra′]CRD[Azk]IQRMHLRQYDLL-OH (triazole 4-8) [compound 54]	91	–
Ac-FN[Pra′]CRD[Azk]IQRMHLRQYELL-NH2 (triazole 3-7) [compound 36]	1	–
Ac-KKKFN[Pra′]CRD[Azk]IQRMHLRQYDLL-OH (triazole 6-10) [compound 55]	72	–

Molecule	Shift (averaged) [2]	further results
Ac-KKKFN[Pra]CRD[Lys(N3)]IQRMHLRQ[1Nal]ELL-OH (triazole 6-10) [compound 57]	49	–
Ac-FN[Pra′]CRD[Azk]IQRMHLRQWELL-OH (triazole 3-7) [compound 30]	9	–
Ac-NARRIFNDARDIIQRMHLRQYEWL-OH [compound 83]	9	–
Ac-FN[Pra′]CRD[Azk]IQRMHLRQYEIL-OH (triazole 3-7) [compound 32]	2	–
Ac-FN[Pra′]CRD[Azk]IQRMHLRQYDLL-OH (triazole 3-7) [compound 39]	52	–
Ac-KKKFN[Pra′]CRD[Azk]IQRMHLRQWELL-OH (triazole 6-10) [compound 56]	53	–
Ac-KKKFN[Pra′]CRD[Azk]IQRMHLRQY[Aad]LL-OH (triazole 6-10) [compound 53]	38	–
Ac-KFN[Pra′]CRD[Azk]IQRMHLRQYELI-OH (triazole 4-8) [compound 46]	51	–
Ac-KFN[Pra′]CRD[Azk]IQRMHLRQY[Aad]LL-OH (triazole 4-8) [compound 52]	53	–
Ac-FN[Pra′]CRD[Azk]IQRMHLRQWELL-OH [compound 29]	4	–
Ac-FN[Azk]CRD[Pra′]IQRMHLRQYELL-OH (triazole 3-7) [compound 35]	5	–
Ac-KKKRDIIQR[Lys(N3)]HLR[Pra′]YE[Cha]L-OH (triazole 10-14) [compound 65]	63	–
Ac-FN[Pra′]CRD[Azk]IQRMHLRQY[Aad]LL-OH (triazole 3-7) [compound 37]	35	–
Ac-FNDARDIIQRMHLRQYELL-OH [compound 75]	5	–
Ac-FN[Pra′]CRD[Azk]IQRMHLRQ[1Nal]ELL-OH (triazole 3-7) [compound 43]	54	–
Ac-KKKFN[Pra′]CRD[Azk]IQRMHLRQYEIL-OH (triazole 6-10) [compound 49]	11	–
Ac-KKKFN[Pra′]CRD[Azk]IQRMHLRQ[2Nal]ELL-OH (triazole 6-10) [compound 58]	39	–
